Results: paper PMC6278376, “Dynamics-Derived Insights into Complex Formation between the CXCL8 Monomer and CXCR1 N-Terminal Domain: An NMR Study” (Molecules, 2018)

Assays:
[1] = molecular target: T1, CXCL8 monomer (residues 1–66) (disulfides Cys9-Cys50 (printed) and Cys7-Cys34 (by convention), mature numbering; mature residue 1 = precursor 28 (offset +27), matching PDB 5WDZ entity 1 (66 aa); 15N-labelled for NMR); assay: NMR titration; 200 μM 15N-CXCL8 titrated with unlabeled CXCR1 peptide (2.5 mM stock, molar ratios 0 to 8.4); 2D 1H-15N HSQC; shift changes fit to a 1:1 model for KD; line shape analysis (Bloch–McConnell, two-site exchange) for koff, kon = koff/KD; 50 mM sodium phosphate pH 6.0, 30 °C; conditions: both partners purified
[2] = molecular target: T1, CXCL8 monomer (residues 1–66); assay: ITC; 890 μM CXCR1 N-domain peptide injected into 80 μM CXCL8 monomer; 50 mM sodium phosphate pH 6.0, 25 °C; single-binding site model; conditions: both partners purified

T1 sequence (chain, as listed by the source): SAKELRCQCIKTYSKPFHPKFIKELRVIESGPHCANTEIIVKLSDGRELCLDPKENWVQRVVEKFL

Kd [1]: ~5 µM
Kd [2]: 8.4 ± 0.5 µM
dH [2]: -2.6 ± 0.2 kcal/mol
stoichiometry N [2]: 0.93 ± 0.03
B1: CXCR1 N-domain peptide corresponding to the first 29 amino acids (29mer) (peptide, UniProt P25024 1-29, looked up)
chain: MSNITDPQMWDFDDLNFTGMPPADEDYSP
notes: CXCR1 receptor, N-terminal domain, first 29 amino acids (M1, S2 ... S28 named in the text); human by the discussion's contrast with the rabbit peptide; Recombinant peptide; 15N-labelled where it was the observed species in NMR, unlabelled otherwise; also called CXCR1 N-domain 29mer; CXCR1 N-terminal domain; source: E. coli BL21(DE3), purified
